Substitutions are numbered along the chain they refer to.

The target in this data set is T1, AP2-HC D1 (Plasmodium falciparum, UniProt Q8IKR9 1316-1374).
T1 sequence: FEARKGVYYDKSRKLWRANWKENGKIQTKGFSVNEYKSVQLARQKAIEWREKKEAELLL
In words: gcPBM; about 25 ug protein; PBS, 1% milk, 0.2 mg/ml BSA, salmon testes DNA, 0.03% Triton X-100. To be noted: tags: N-terminal GST (pGEX-4T-1), kept; label: surface-attached array probe.

B1: CACACA_site4435 (dsDNA)
DNA 1: TACACAGACGGACACACACACACACTAGAAAAAAAA
DNA 2: TTTTTTTTCTAGTGTGTGTGTGTGTCCGTCTGTGTA
Regarding B1, the binding signal is 11.9 ln median PBM intensity, better of two orientations.

B2: CACACA_site6643 (dsDNA)
DNA 1: AACATACACATATACACACACACATATATACCTATA
DNA 2: TATAGGTATATATGTGTGTGTGTATATGTGTATGTT
Consider B2, for which the binding signal was 11.9 ln median PBM intensity, better of two orientations.

B3: CACACA_site372 (dsDNA)
DNA 1: AAGCATACATCAAGCACACACACACCCACACCCACA
DNA 2: TGTGGGTGTGGGTGTGTGTGTGCTTGATGTATGCTT
Regarding B3, the binding signal was 11.9 ln median PBM intensity, better of two orientations.

B4: CACACA_site4909 (dsDNA)
DNA 1: AAAAAATCAAAACACACACACACACTAGAAAAAAAA
DNA 2: TTTTTTTTCTAGTGTGTGTGTGTGTTTTGATTTTTT
For B4, the binding signal is 11.8 ln median PBM intensity, better of two orientations.

B5: CACACA_site1444 (dsDNA)
DNA 1: B4 DNA 1 with T26C, A27C, G28A
DNA 2: B4 DNA 2 with C9T, T10G, A11G
B5: the binding signal was 11.8 ln median PBM intensity, better of two orientations.

B6: CACACA_site6551 (dsDNA)
DNA 1: ATAAAAAGGAGACACACACACACACGCATATTTATA
DNA 2: TATAAATATGCGTGTGTGTGTGTGTCTCCTTTTTAT
As to B6, the binding signal was 12 ln median PBM intensity, better of two orientations.

B7: CACACA_site904 (dsDNA)
DNA 1: B6 DNA 1 with G11A, G26C, T32A
DNA 2: B6 DNA 2 with A5T, C11G, C26T
As for B7, the binding signal is 11.9 ln median PBM intensity, better of two orientations.

B8: CACACA_site4441 (dsDNA)
DNA 1: CAAATACCCGGACACACACACACAAAAAAAAAAAAA
DNA 2: TTTTTTTTTTTTTGTGTGTGTGTGTCCGGGTATTTG
On to B8, for which the binding signal was 11.9 ln median PBM intensity, better of two orientations.

B9: CACACA_site6254 (dsDNA)
DNA 1: TATTTATTAAGACACACACACACACGCACAAAATAA
DNA 2: TTATTTTGTGCGTGTGTGTGTGTGTCTTAATAAATA
For B9, the binding signal was 12.1 ln median PBM intensity, better of two orientations.

B10: CACACA_site6991 (dsDNA)
DNA 1: ACAGAAAAAAGACACACACACATAATATACATACAT
DNA 2: ATGTATGTATATTATGTGTGTGTGTCTTTTTTCTGT
With B10, the binding signal is 11.8 ln median PBM intensity, better of two orientations.

B11: CACACA_site6387 (dsDNA)
DNA 1: TTAACAAATAGACACACACACACACGCAAAAAAAAA
DNA 2: TTTTTTTTTGCGTGTGTGTGTGTGTCTATTTGTTAA
For the molecule B11, the binding signal is 12 ln median PBM intensity, better of two orientations.

B12: CACACA_site7288 (dsDNA)
DNA 1: AAAAAAAAAAAAAACACACACACACGCACATATACA
DNA 2: TGTATATGTGCGTGTGTGTGTGTTTTTTTTTTTTTT
With B12, the binding signal was 11.9 ln median PBM intensity, better of two orientations.

B13: CACACA_site8849 (dsDNA)
DNA 1: AAAAAAAAAAAACACACACACACACCGATACATACA
DNA 2: TGTATGTATCGGTGTGTGTGTGTGTTTTTTTTTTTT
Take B13: the binding signal is 12 ln median PBM intensity, better of two orientations.

B14: CACACA_site6093 (dsDNA)
DNA 1: TATATAAATGGACACACACACACCTTATAATTATTA
DNA 2: TAATAATTATAAGGTGTGTGTGTGTCCATTTATATA
For B14, the binding signal was 11.9 ln median PBM intensity, better of two orientations.

B15: CACACA_site903 (dsDNA)
DNA 1: CCATAAAAAGGATACACACACACACCCACATATATA
DNA 2: TATATATGTGGGTGTGTGTGTGTATCCTTTTTATGG
Take B15: the binding signal is 11.9 ln median PBM intensity, better of two orientations.

B16: CACACA_site5152 (dsDNA)
DNA 1: GTATAATATGAACACACACACACACCCAAAAAAAAA
DNA 2: TTTTTTTTTGGGTGTGTGTGTGTGTTCATATTATAC
Regarding B16, the binding signal was 11.9 ln median PBM intensity, better of two orientations.

B17: CACACA_site8824 (dsDNA)
DNA 1: GATAATTATGGACACACACACACACCCACAACTAAA
DNA 2: TTTAGTTGTGGGTGTGTGTGTGTGTCCATAATTATC
Regarding B17, the binding signal is 12 ln median PBM intensity, better of two orientations.

The values above are taken from publication PMC11417369, “DNA sequence and chromatin differentiate sequence-specific transcription factor binding in the human malaria parasite Plasmodium falciparum”.
